In US20100099610A1 (published 2010):
Changes are numbered by the printed parent chain. Names may count otherwise.

B1: GlyPro-mTGase_Y75A from S. ladakanum (enzyme)
chain: GPDSDERVTPPAEPLDRMPDPYRPSYGRAETIVNNYIRKWQQVYSHRDGRKQQMTEEQREWLSYGCVGVTWVNSGQAPTNRLAFAFFDEDKYKNELKNGRPRSGETRAEFEGRVAKDSFDEAKGFQRARDVASVMNKALENAHDEGAYLDNLKKELANGNDALRNEDARSPFYSALRNTPSFKDRNGGNHDPSKMKAVIYSKHFWSGQDRSGSSDKRKYGDPEAFRPDRGTGLVDMSRDRNIPRSPTSPGESFVNFDYGWFGAQTEADADKTVWTHGNHYHAPNGSLGAMHVYESKFRNWSDGYSDFDRGAYVVTFVPKSWNTAPDKVKQGWP
B2: GlyPro-mTGase_Y75N from S. ladakanum (enzyme)
chain: B1 chain with A77N
B3: GlyPro-mTGase_Y62H_Y75F from S. ladakanum (enzyme)
chain: B1 chain with Y64H, A77F, K329T
B4: GlyPro-mTGase_Y62H_Y75N from S. ladakanum (enzyme)
chain: B1 chain with Y64H, A77N
B5: GlyPro-mTGase from S. ladakanum (enzyme)
chain: B1 chain with A77Y
B6: GlyPro-mTGase_Y75F from S. ladakanum (enzyme)
chain: B1 chain with A77F
B7: AlaPro-mTGase from S. mobaraensis (enzyme)
chain: APDSDDRVTPPAEPLDRMPDPYRPSYGRAETVVNNYIRKWQQVYSHRDGRKQQMTEEQREWLSYGCVGVTWVNSGQYPTNRLAFASFDEDRFKNELKNGRPRSGETRAEFEGRVAKESFDEEKGFQRAREVASVMNRALENAHDESAYLDNLKKELANGNDALRNEDARSPFYSALRNTPSFKERNGGNHDPSRMKAVIYSKHFWSGQDRSSSADKRKYGDPDAFRPAPGTGLVDMSRDRNIPRSPTSPGEGFVNFDYGWFGAQTEADADKTVWTHGNHYHAPNGSLGAMHVYESKFRNWSEGYSDFDRGAYVITFIPKSWNTAPDKVKQGWP
B8: S. ladakanum GlyPro-TGase mutant S250L (enzyme)
chain: B1 chain with A77Y, S252L
B9: S. ladakanum GlyPro-TGase mutant S250H (enzyme)
chain: B1 chain with A77Y, S252H
B10: S. ladakanum GlyPro-TGase mutant S250F (enzyme)
chain: B1 chain with A77Y, S252F
B11: S. ladakanum GlyPro-TGase mutant S250D (enzyme)
chain: B1 chain with A77Y, S252D
B12: S. ladakanum GlyPro-TGase mutant S250G (enzyme)
chain: B1 chain with A77Y, S252G
B13: S. ladakanum GlyPro-TGase mutant S250C (enzyme)
chain: B1 chain with A77Y, S252C

Target: wild type human growth hormone (human, UniProt P01241 27-217)
Sequence (P01241 27-217): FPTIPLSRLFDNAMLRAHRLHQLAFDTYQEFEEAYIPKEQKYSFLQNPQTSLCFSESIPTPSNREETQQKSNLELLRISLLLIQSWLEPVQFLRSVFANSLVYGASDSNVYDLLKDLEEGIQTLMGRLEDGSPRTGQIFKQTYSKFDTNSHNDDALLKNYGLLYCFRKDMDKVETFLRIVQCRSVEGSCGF
Assay: cell-based or functional assay

RS (relative selectivity against AlaPro-mTGase from S. mobaraensis) | Binder
3 | B1
3.4 | B2
6.4 | B3
4.6 | B4
1.8 | B5
5.1 | B6
1 | B7

Target: hGHQ40N (human, UniProt P01241 27-217)
Sequence (P01241 27-217 Q66N): as the sequence (P01241 27-217) above, with Q40N counted along it
Assay: cell-based or functional assay

RSA Q141 | Binder
0.06 relative to wild type TGase | B1
3.59 relative to wild type TGase | B8
2.25 relative to wild type TGase | B9
2.63 relative to wild type TGase | B10
1.04 relative to wild type TGase | B11
2.42 relative to wild type TGase | B12
5.34 relative to wild type TGase | B13

Target: hGHQ141N (human, UniProt P01241 27-217)
Sequence (P01241 27-217 Q167N): as the sequence (P01241 27-217) above, with Q141N counted along it
Assay: cell-based or functional assay

RSA Q40 | Binder
0.03 relative to wild type TGase | B1
1.9 relative to wild type TGase | B8
1.4 relative to wild type TGase | B9
1.85 relative to wild type TGase | B10
0.76 relative to wild type TGase | B11
1.77 relative to wild type TGase | B12
3.02 relative to wild type TGase | B13
